Experimental data as given in patent US20250353900A1 (HUMABS BIOMED, published 2025).

Assays:
[1] = biological target: T1, Recombinant human FcγRIIa (H131) (human, UniProt P12318 34-218); assay: BLI (Octet), His-tagged FcγR on anti-penta-His sensors, mAb cross-linked with anti-F(ab')2
T1 construct: also called FcγRIIa allele H131
T1 sequence (looked up): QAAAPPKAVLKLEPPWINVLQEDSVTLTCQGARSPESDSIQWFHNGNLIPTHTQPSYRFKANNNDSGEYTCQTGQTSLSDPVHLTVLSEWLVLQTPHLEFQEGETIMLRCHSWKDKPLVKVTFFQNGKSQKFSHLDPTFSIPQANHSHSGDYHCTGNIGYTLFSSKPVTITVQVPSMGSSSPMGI
Method: (§1) His-tagged human FcγRs ((A) FcγRIIa allele H131; (B) FcγRIIa allele R131; (C) FcγRIIIa allele F158; (D) FcγRIIIa allele V158; (E) FcγRIIb) at 2 μg/ml were captured onto anti-penta-His sensors for 6 minutes. FcγR-loaded sensors were then exposed for 5 minutes to a solution of kinetics buffer (pH 7.1) containing 2 μg/ml of each mAb (left part of the plot) in the presence 1 μg/ml of affiniPure F(ab′)₂ Fragment Goat Anti-Human IgG, F (ab′) 2 fragment specific (to cross-link human mAbs through the Fab fragment), followed by a dissociation step in the same buffer for additional 4 minutes (right part of the plot). Association and dissociation profiles were measured in real time as change in the interference pattern using an Octet® RED96 (FortéBio).
(§2) Briefly, His-tagged human FcγRs (FcγRIIa allele H131, FcγRIIa allele R131, FcγRIIAa allele F158, FcγRIIIa allele V158 and FcγRIIb) at 2 μg/ml were captured onto anti-penta-His sensors for 6 minutes. FcγR-loaded sensors were then exposed for 4 minutes to a solution of kinetics buffer (pH 7.1) containing 2 μg/ml of each mAb in the presence 1 μg/ml of affiniPure F(ab′)₂ Fragment Goat Anti-Human IgG, F(ab′)₂ fragment-specific (to cross-link human mAbs through the Fab fragment), followed by a dissociation step in the same buffer for 4 additional minutes (right part of the plot). Association and dissociation profiles were measured in real time as change in the interference pattern using an Octet® RED96 (FortéBio).

[2] = biological target: T2, Recombinant human FcγRIIIa (V158) (human, UniProt P08637 17-208); assay: as above
T2 construct: also called FcγRIIIa allele V158
Method: as §1, §2

[3] = biological target: T3, Recombinant human FcγRIIIa (F158) (human, UniProt P08637 17-208); assay: as above
T3 construct: also called FcγRIIIa allele F158; FcγRIIAa allele F158
Method: as §1, §2

[4] = biological target: HBV HBsAg of genotype C on engineered hepatitis D virus (hepatitis B virus genotype C); assay: cell-based or functional assay
[5] = biological target: HBV HBsAg of genotype A on engineered hepatitis D virus (hepatitis B virus genotype A); assay: cell-based or functional assay
[6] = biological target: T4, Human complement component C1q (human, UniProt P02745 23-245; P02746 28-253; P02747 29-245); assay: BLI (Octet), IgG captured on anti-human Fab (CH1) sensors
T4 construct: also called human complement protein C1q
T4 sequence (P02745 23-245 limits assumed, chain 1 of 3): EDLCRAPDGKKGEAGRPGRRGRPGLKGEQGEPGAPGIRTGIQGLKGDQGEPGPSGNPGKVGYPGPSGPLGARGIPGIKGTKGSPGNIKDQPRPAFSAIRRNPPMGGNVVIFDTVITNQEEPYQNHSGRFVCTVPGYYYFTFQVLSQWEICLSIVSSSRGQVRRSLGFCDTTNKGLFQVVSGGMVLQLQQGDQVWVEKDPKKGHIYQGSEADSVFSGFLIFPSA
T4 sequence (P02746 28-253 limits assumed, chain 2 of 3): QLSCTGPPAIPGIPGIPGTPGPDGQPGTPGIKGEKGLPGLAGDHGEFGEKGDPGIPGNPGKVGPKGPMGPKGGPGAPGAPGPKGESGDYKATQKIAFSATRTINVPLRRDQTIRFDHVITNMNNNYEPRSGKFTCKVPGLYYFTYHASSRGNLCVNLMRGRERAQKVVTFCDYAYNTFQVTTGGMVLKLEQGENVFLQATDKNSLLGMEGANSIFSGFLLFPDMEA
T4 sequence (P02747 29-245 limits assumed, chain 3 of 3): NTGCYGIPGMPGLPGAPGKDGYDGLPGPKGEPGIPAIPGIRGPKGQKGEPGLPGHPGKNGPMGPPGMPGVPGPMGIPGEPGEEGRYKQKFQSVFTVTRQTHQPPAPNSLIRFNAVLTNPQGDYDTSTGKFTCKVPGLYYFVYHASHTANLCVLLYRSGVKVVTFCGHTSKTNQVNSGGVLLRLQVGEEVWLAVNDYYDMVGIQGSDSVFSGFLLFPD
Method: IgG-loaded sensors were then exposed for 4 minutes to a solution of kinetics buffer (pH 7.1) containing 3 μg/ml of purified human C1q (left part of the plot), followed by a dissociation step in the same buffer for 4 additional minutes (right part of the plot). Association and dissociation profiles were measured in real time as change in the interference pattern using an Octet® RED96 (FortéBio).

T3 sequence (P08637 17-208 limits assumed): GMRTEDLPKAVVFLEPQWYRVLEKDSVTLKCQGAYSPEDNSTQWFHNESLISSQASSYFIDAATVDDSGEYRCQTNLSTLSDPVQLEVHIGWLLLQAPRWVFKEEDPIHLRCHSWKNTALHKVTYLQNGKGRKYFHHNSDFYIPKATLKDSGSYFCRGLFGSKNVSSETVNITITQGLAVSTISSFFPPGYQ
T2 sequence (P08637 17-208 F176V limits assumed): as the sequence (P08637 17-208 limits assumed) above, with F160V counted along it

B1: HBC34-V35-MLNS-GAALIE (antibody, human IgG1, lambda)
heavy: ELQLVESGGGWVQPGGSQRLSCAASGRIFRSFYMSWVRQAPGKGLEWVATINQDGSEKLYVDSVKGRFTISRDNAKNSLFLQMNNLRVEDTAVYYCAAWSGNSGGMDVWGQGTTVSVSSASTKGPSVFPLAPSSKSTSGGTAALGCLVKDYFPEPVTVSWNSGALTSGVHTFPAVLQSSGLYSLSSVVTVPSSSLGTQTYICNVNHKPSNTKVDKKVEPKSCDKTHTCPPCPAPELLAGPSVFLFPPKPKDTLMISRTPEVTCVVVDVSHEDPEVKFNWYVDGVEVHNAKTKPREEQYNSTYRVVSVLTVLHQDWLNGKEYKCKVSNKALPLPEEKTISKAKGQPREPQVYTLPPSRDELTKNQVSLTCLVKGFYPSDIAVEWESNGQPENNYKTTPPVLDSDGSFFLYSKLTVDKSRWQQGNVFSCSVLHEALHSHYTQKSLSLSPGK
light: SYELTQPPSVSVSPGQTVSIPCSGDKLGNKNVAWFQHKPGQSPVLVIYEVKYRPSGIPERFSGSNSGNTATLTISGTQAMDEAAYFCQTFDSTTVVFGGGTRLTVLGQPKAAPSVTLFPPSSEELQANKATLVCLISDFYPGAVTVAWKADSSPVKAGVETTTPSKQSNNKYAASSYLSLTPEQWKSHRSYSCQVTHEGSTVEKTVAPTECS
What does the source list for B1?
binding result [1]: binds; binding result [2]: binds; binding result [3]: binds; neutralization EC50, HDV engineered to express HBV HBsAg [4]: 0.92 ng/mL; neutralization EC50, HDV engineered to express HBV HBsAg [5]: 2.34 ng/mL; binding result [6]: no binding (tested: 3 µg/ml of purified human C1q)
